In the supplement of paper PMC7125110:
± gives the standard error. This sample holds only a part of the variants without activity.

B1: glmS ribozyme (parent)
chain: AUAAAAGCGCCAGAACUACAGAAAUGUAGUUGACGAGGAGGAGGUUUAUCGAAUUUUCGGCGGAUGCCUCCAAA

Tests used:
Settings in all cases: with glucosamine-6-phosphate
glucosamine-6-phosphate [1] = variants of: B1; experiment: self-cleavage kobs at 40 uM GlcN6P; higher = faster cleavage; RNA array
Outline: (§1)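 Tracking of barcoded ribozyme variants used a hybridised Cy3 probe at 37 °C, after in situ transcription by E. coli RNA polymerase on sequenced MiSeq chips. The flowed solution held 40 μM to 10 mM glucosamine-6-phosphate in HEPES/KCl/Mg(OAc)2 buffer, and imaging ran over ~14 h. kobs was taken from exponential decay fits of normalised per-tile medians, and kcat and KM from weighted Michaelis–Menten fits.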

glucosamine-6-phosphate [2] = variants of: B1; experiment: self-cleavage kobs at 160 uM GlcN6P; higher = faster cleavage; RNA array
Outline: as §1

glucosamine-6-phosphate [3] = variants of: B1; experiment: self-cleavage kobs at 10000 uM GlcN6P; higher = faster cleavage; RNA array
Outline: as §1

glucosamine-6-phosphate [4] = variants of: B1; experiment: self-cleavage kobs at 640 uM GlcN6P; higher = faster cleavage; RNA array
Outline: as §1

glucosamine-6-phosphate [5] = variants of: B1; experiment: self-cleavage kobs at 2500 uM GlcN6P; higher = faster cleavage; RNA array
Outline: as §1

| Variant | self-cleavage kobs at 40 uM GlcN6P (glucosamine-6-phosphate [1]) [s⁻¹] | self-cleavage kobs at 160 uM GlcN6P (glucosamine-6-phosphate [2]) [s⁻¹] | self-cleavage kobs at 10000 uM GlcN6P (glucosamine-6-phosphate [3]) [s⁻¹] | self-cleavage kobs at 640 uM GlcN6P (glucosamine-6-phosphate [4]) [s⁻¹] | self-cleavage kobs at 2500 uM GlcN6P (glucosamine-6-phosphate [5]) [s⁻¹] |
| --- | --- | --- | --- | --- | --- |
| A15C G51A | < 1e-05 | < 1e-05 | < 1e-05 |  |  |
| A12U A36G | < 1e-05 | < 1e-05 |  |  |  |
| G32C C70G C71G | 7.5e-05 ± 3.3e-05 |  |  | 0.000291 ± 9.2e-05 | 7.37e-05 ± 3.4e-05 |
| U31A U65C U69C | < 1e-05 |  |  |  |  |
| G7A G13A C68U | < 1e-05 |  |  |  |  |
| U47G G62A | < 1e-05 |  |  | < 1e-05 |  |
| U31A A42G G51A C70G | < 1e-05 |  | < 1e-05 |  |  |
| C8G G43C | < 1e-05 | < 1e-05 | < 1e-05 | < 1e-05 | < 1e-05 |
| G35C G63U C71A | < 1e-05 |  | < 1e-05 |  | < 1e-05 |
| G35A U56A G63A | < 1e-05 |  | < 1e-05 |  |  |
| C8A G40U C61U U69G | < 1e-05 |  | < 1e-05 |  |  |
| U54G A64C C67A C70U | 0.000151 ± 5.2e-05 | 0.000348 ± 0.00013 | 4.58e-05 ± 1.8e-05 | 0.000556 ± 0.00017 | 0.000241 ± 0.0001 |
| G38U G63U | < 1e-05 |  | < 1e-05 |  | < 1e-05 |
| A42G G63C | < 1e-05 | < 1e-05 | < 1e-05 | < 1e-05 | < 1e-05 |
| G9U G29U A42G U65G | < 1e-05 |  | < 1e-05 |  |  |
| C11G G29A U49G U69G | 4.27e-05 ± 1.7e-05 |  |  |  |  |
| G35C G59U C61U | < 1e-05 | < 1e-05 | < 1e-05 | < 1e-05 | < 1e-05 |
| C11G A52C | < 1e-05 | < 1e-05 | < 1e-05 | < 1e-05 | < 1e-05 |
| G9U G35A | < 1e-05 | < 1e-05 | < 1e-05 | < 1e-05 | < 1e-05 |
| U57G U65G | < 1e-05 | < 1e-05 |  |  |  |
| C50G A53U G63U U69A | 0.00027 ± 6.1e-05 | 0.000207 ± 5.6e-05 | 0.000127 ± 2.4e-05 |  | 0.000121 ± 3.5e-05 |
| A48U U56A C58A | < 1e-05 |  |  |  |  |
| G38C U57C | < 1e-05 | < 1e-05 | < 1e-05 |  |  |

| Variant | self-cleavage kobs at 40 uM GlcN6P (glucosamine-6-phosphate [1]) [s⁻¹] | self-cleavage kobs at 160 uM GlcN6P (glucosamine-6-phosphate [2]) [s⁻¹] | self-cleavage kobs at 10000 uM GlcN6P (glucosamine-6-phosphate [3]) [s⁻¹] | self-cleavage kobs at 640 uM GlcN6P (glucosamine-6-phosphate [4]) [s⁻¹] | self-cleavage kobs at 2500 uM GlcN6P (glucosamine-6-phosphate [5]) [s⁻¹] |
| --- | --- | --- | --- | --- | --- |
| U46G A48C | < 1e-05 | < 1e-05 |  | < 1e-05 |  |
| C8U C34G | < 1e-05 | < 1e-05 | < 1e-05 |  |  |
| U65A C70U | 0.000142 ± 1.8e-05 | 0.00024 ± 4.6e-05 | 0.00403 ± 0.0008 | 0.000871 ± 0.00012 | 0.00273 ± 0.0009 |
| A6G A33G A48G A64U | < 1e-05 |  | < 1e-05 |  |  |
| A14G C50G C71U | 0.000639 ± 0.00021 | 0.000245 ± 7.3e-05 | 4.82e-05 ± 2e-05 | 0.00131 ± 0.00027 |  |
| U57A G59U | < 1e-05 | < 1e-05 | < 1e-05 | < 1e-05 |  |
| A33C G51A G60C | < 1e-05 |  |  | < 1e-05 |  |
| A36G A48C | < 1e-05 | < 1e-05 | < 1e-05 | < 1e-05 |  |
| G43A G62C U65C C68G | < 1e-05 |  |  |  |  |
| C34U G59C | < 1e-05 | < 1e-05 | < 1e-05 | < 1e-05 | < 1e-05 |
| C8G U54G | < 1e-05 |  |  |  |  |
| C10U U31G G40U | < 1e-05 |  |  |  |  |
| A15G C16G A33G A52G G60A | < 1e-05 | < 1e-05 | < 1e-05 |  |  |
| G37U G41A C68U | < 1e-05 |  |  |  |  |
| G35U G63U G66C C67A | < 1e-05 |  | < 1e-05 |  |  |
| A12C G62C | < 1e-05 |  | < 1e-05 |  | < 1e-05 |
| C16U G32U G40A C71G | < 1e-05 |  | 0.0002 ± 2.8e-05 |  |  |
| G44C C70G | < 1e-05 | < 1e-05 | < 1e-05 | < 1e-05 | < 1e-05 |
| G32U U46C G51U | < 1e-05 |  | < 1e-05 |  |  |
| G40U A53U C58A G62U | < 1e-05 |  |  |  |  |
| G44A A48U | < 1e-05 | < 1e-05 |  | < 1e-05 |  |
| A15G C50G C68U | 0.000179 ± 3.4e-05 |  | 0.000154 ± 3.1e-05 | 0.000492 ± 0.00016 | 0.000371 ± 0.00011 |
| A15U U47C C61U | < 1e-05 |  | < 1e-05 |  |  |
